Data: patent US4331762A, “Bacillus stearothermophilus strain UK 788 and process for producing a useful enzyme” (Unitika Ltd., priority 1980, dated 1982)

How the values were obtained:
Assay in all cases: purified protein, by the assay type
[1] = substrate: NC(=O)c1ccc[n+]([C@@H]2O[C@H](COP(=O)([O-])OP(=O)(O)OC[C@H]3O[C@@H](n4cnc5c(N)ncnc54)[C@H](OP(=O)(O)O)[C@@H]3O)[C@@H](O)[C@H]2O)c1; details: other: coenzyme NADP or NAD; pH 8.9
[2] = substrate: NC(=O)c1ccc[n+]([C@@H]2O[C@H](COP(=O)([O-])OP(=O)(O)OC[C@H]3O[C@@H](n4cnc5c(N)ncnc54)[C@H](O)[C@@H]3O)[C@@H](O)[C@H]2O)c1; details: other: coenzyme NADP or NAD; pH 8.9
Text: The activity required to increase the absorbance of 1 micromol of NADPH at 340 nm per minute was defined to be one unit.

[3] = substrate: O=P(O)(O)OC[C@H]1OC(O)[C@H](O)[C@@H](O)[C@@H]1O; details: other: substrate glucose-6-phosphate; pH 8.9

B1: heat-resistant glucose-6-phosphate dehydrogenase from Bacillus stearothermophilus UK 788 (FERM-P No. 5141) (Geobacillus stearothermophilus ATCC 12980) (protein)
chain: MDNMNPKSIIVIFGATGDLAKRKLFPSLYRLYEKGHLNEQFAVVGVARRPLSADEFRNYVRDSVETAFHQKLADGRFTSHFYYHPFDVTEAESYQRLKSLLEQLDGTYKTEGNRIFYLAMAPEFFGTVTSRLQSEGLTETHGFKRLVIEKPFGHDLASAEKLNDEIRRVFSEREIYRIDHYLGKEMVQNIKVIRFSNAIFEPLWNNRFIANIQITSSETLGVEDRGRYYDHSGALRDMVQNHMLQMVALLAMEPPIKLTTDDIRHEKVKVLRALRPIAHDEVDRYFVRGQYGRGVIHGKHVPAYREEPNVDPDSNTETFVAGKLLIDNFRWAGVPFYIRTGKRMAEKSTKIVVQFKDVPMNLYYRTNETIAPNLLVIHIQPDEGITLHLNGKKTGESTTITAPFQLDYCNNCIDGINTPEAYEKLLYDCMRGDATNFTHWDEVAASWQFVDPISEVWANTKASDFPNYAAGSMGPAAAGELLKKDGFHWWPIEHPRP
[1]
  Km: 16 µM
[2]
  Km: 1640 µM
[3]
  Km: 160 µM
